In a protein production outcome set (Wang et al. 2014):

Assay: label from the status in PepcDB records

Row | Sequence | protein production
1 | MRVFVTGASGWIGSAVVPELIRAGHQVVGLARSDASAEALTAAGAGVVRGTLDDLDVLRRAAADSDGVVHLAFKHDIAFSGDFKGAGEADRRAVEVIGEALAGSDRPFTIASGTPAIPGHVATEHDGHDADRAAAARGDAQHIRAVTAELTVSLSARGVRSSVVRLAPTNHGEGDNGFVPALIGIARGKGVSGYIGDGTNRWSAAHRLDSARLFRLALEKAPAGSTLHAVAEEGLPVRDLAEVVGRQLGLPVVSVPAAEAEAHFGWLAGPLAANRAASSVLTRELLGWEPVQPGLVEDLEQGHYFK | failed
2 | MRKSLKMTIGIGLILSCFGLILVGIGLSSGGIDKLQVKDDQAPKKEVQFDNIQSLDLDLSVRNIKIESSQDQHFKLTYYKKLDEEISHKVQHQKLNLKQKEKFRIHFFVLSDFFNWFHQDDTNTVTLAIPKNVQLKDVSIKNNVGDITIKNQQASKITVHQNTGNLNIYNSQIAKGKVSSDVGNIAIQNSSLSNIDVVDHTGDISAENLTVLNLVRMTNNIGNTNVSLSPQSAQATIVSTKTDVGHTDISHQLLQGYSGKNRLAVKGDTGNIQIK | failed
3 | MNINGIKLLSSRAVSKLGDVFYDYGNSTWIASMGGLGQKILGIYQIVELLVSIVLNPFGGALADRFQRRKILLITDAICAIMCFLLSFIGDDKVMVYGLIVANAILAVSNAFSSPAYKSYIPEIVDKADIITYNANLETIVQIISVSSPVLGFLIFNNFGIRITLIVDAITFLISFLFLYAIKVERVQLSKQEKVAIKNILADIADGFTYIKKEKEIMFFLIIAALLNTFLAMFNYLLPFTNSLLKTSGAYATILSISAIGSIIGALIARKIKSSINSMLSMLVFSSLGVIVMGFPSLFELPIWIPYSGSFLFNSLLTMFNIHFFSQVQIRVDEAYMGRVMSTIFTIAIMFMPIGTLFMTIFSFALSNVSFIVIGCAIAILGGLGFSYSKKQF | failed
4 | MEAFGGFVMDEQAIQVENVFLEFLKSFRLDANKPELYYEAEIEAIRGGESTMMYIDFSHVMGFNDALQKAIADEYLRFEPYLRNACKRFVIEMNPSFISDDTPNKDINVSFYNLPFTKRLRELTTAEIGKLVSVTGVVTRTSEVRPELLYGTFKCLDCGSVIKNVEQQFKYTQPTICVSPTCLNRARWALLRQESKFADWQRVRMQETSKEIPAGSLPRSLDVILRHEIVEQARAGDTVIFTGTVVVIPDISALAAPGERAECRRDSSQQKSSTAGHEGVQGLKALGVRDLSYRLAFIANSVQIADGSRNTDMRNRQNDSNEDDQQQFTAEELDEIQQMRNTPDYFNKLVGSMAPTVFGHQDIKRAVLLMLLGGVHKTTHEGINLRGDINVCIVGDPSCAKSQFLKYTAGIVPRSVYTSGKSSSAAGLTATVAKEPETGEFCIEAGALMLADNGICCIDEFDKMDIKDQVAIHEAMEQQTISITKAGIQATLNARTSILAAANPVGGRYDKSKPLKYNVNLPPAILSRFDLVYVMIDDPDEVTDYHIAHHIVRVHQKHEAALSPEFTTVQLKRYIAYAKTLKPKLSPEARKLLVESYVALRRGDTTPGTRVAYRMTVRQLEALIRLSEAIARSHLEILVKPSHVLLAVRLLKTSVISVESGDIDLSEYQDANGDNMDDTDDIENPVDGEEDQQNGAAEPASATADNGAAAQKLVISEEEYDRITQALVIRLRQHEETVNKDSSELPGIRQKELIRWFIDQQNEKKKYSSQEQVKLDIKKLRAIIESLVCKEGHLIVLANEQEEAAEAEETKKKSSQRDERILAVAPNYVIE | failed
5 | MKGLCSSDTRQYLPGHQLWEAPVQIRRYSAVIHHATKCQWGVIPSRTINVSLHQTRRMRVAAVGIGGAGGRIVERLWQDNERRETTYLGAACAVDTDTEALDELDALPADRRYAFGLSETNGTGTNGDRTSGTAAIEDERLEVRRAIDELVTSDIDAVVLVAGLAGGTGSGATAHIADALREVYSIPVYCLSVLPAGRDDDAAANTMQALRALESTVDGQILFDNEAWLGSGQTVESASETLNETIVARLGALFAAGEATAPDAVGQSVVDASEIINTLSDAGFTTLGYASQDLQTGAGSGDGTVIDQLKNRFLGDNADDVDEIEAYNAVETTLRRAVRGKLTAQCELDSADRALAVFAGPPAWLIRDAVTDGRRWLTEELQSPLEHHHHHH | failed
6 | MGSPASASHEALRHILDAGASMGSLQGLDEAQQQALYAIAHGAYEQGRYADALKMFCLLVACDPLEARYLLALAAAAQELGLYEHALQQYAAAAALQLDSPRPLLHGAECLYALGRRRDALDTLDMVLELCGSPEHAALRERAESLRRSYARALEHHHHHH | failed
7 | MEQRLLNANERSTYGKNAAVKMRKAGRIPAVMYDRHGKSVPIDVDEREFMKLFKLVTESTIVTLNAAGKDYEVFIKDFQHDIVSDKIKHIDFYEVERGKTLRTKVKIRLEGSPEGVRHGGILETGITELELECLPKDLPARIIVDVSALDVNQSLHVRDIKLPEAVTVLTSDDITVAAIKFAAAESTTPAATEGEETEAAAAAPEPAAEDK | failed
8 | MALVYLVQSDTTIGLLSKDSEKLNALKGRPKNQSVLIESADFSTLKSLVRAPNAFKNLIRRSAKTTFIYPNSKAVRVIRGRHGDFLNRFKTLYSTSANLTQCAYDKEIASNLADVIVSDERGLFESSSSKIFRLYKDKKVRIR | failed
9 | MSAEKSISSDHVPLSDPALKTINRNAGRNLNHIAFISTLGGLLFGVDTGVINGAIGYMATPAELNLSPNNEGLVTSGITLGAAFGAVFAGHLSDRIGRKRLLKYLALLFFVCTLACSLAPNALFMIISRVLLGLAVGGASVIVPTYLSEISTPEIRGRLVTQNELMIVTGQLLAFIVNAILGNWFGHISNIWRYMIGFGMIPAVALFFGMMVVPESPRWLVMVNQLDNAFDSLRKIRSHPETCNEEITQIQDTLNQESEIKQATFKDLSTPWIRRLVFIGIGLGVMQQFIGINIMMYYGTTILTNSGFAHNAALIANIGNGLVSVIATFIGMSIMNRVNRRSMLIAGIIGTTTSLILIVGVSAFLSQSPLLPILVVLCTMMFLGFFQGFISPLVWLLLSEIFPQNLRGLGMGVSTFFLWFANFLVGYFFPILLSAVGMTWTFLIFVFFNILSFIFAYKYAPETRGKSLELIQMEFKYGDTTGINPEDK | failed
10 | MVISLVIVAVTATEIFEIVELPFEKTLSAISVGSLFNFSVAVVSKSGYLGVFGLMALESTFIPVPSEVILPLSGYLVYIHTFTFAAIIADAIVASMVGSFIDYYLGLYIGRPIIVKILGFFYVKEDSLVKAENWIDRWGASSVFFARFIPGIRSLISIPAGMLKMKVWVFALMTFLGSVIWSTILVYIGFKAGPYWSSAVHSFSVILDQIIIDAIFAACLAYIGYFIYLKIKTRTKPSY | failed
11 | MERIETIPTDKEHLSQDEVIRLASTPCSAPALKRAFLFSCLTALRKSDIKKLTWEEIQPYGSDGVMYVTTRMQKTKDIVHNPISEEALELIGYSPDKRGKVFPDFKDSMTQAPLKNWLKDAGITKHISYHCSRHSFACLQLDAGTSIAVVQRYLGHKNVATTEVYAKISDAQKRASVGLEHHHHHH | not failed
12 | MEFYEVIKKRKSIKKFEQTAIDRDKLLKIIDMAMRAPSWKNKTPYKFIVVESDKLKLDIANAIENKTSAASEAVLNSPMTIVAVANPEESGDVSGKEIYLIDTAIAMEHIVLGATDEGYGTCWIAAFNENKIKEALKIPDNLRVVALTPLGVPKDSAEDEPHHPKKDMDEYLYIDKWGTSFMESNVKILEKN | not failed
13 | AQKKTQKTYIPWSNGKLVVSEEGRYLKHENGTPFFWLGETGWLLPERLNRDEAEYYLEQCKRRGYNVIQVQTLNNVPSMNIYGQYSMTDGYNFKNINQKGVYGYWDHMDYIIRTAAKKGLYIGMVCIWGSPVSHGEMNVDQAKAYGKFLAERYKDEPNIIWFIGGDIRGDVKTAEWEALATSIKAIDKNHLMTFHPRGRTTSATWFNNAPWLDFNMFQSGHRRYGQRFGDGDYPIEENTEEDNWRFVERSMAMKPMKPVIDGEPIYEEIPHGLHDENELLWKDYDVRRYAYWSVFAGSFGHTYGHNSIMQFIKPGVGGAYGAKKPWYDALNDPGYNQMKYLKNLMLTFPFFERVPDQSVIAGQNGERYDRAIATRGNDYLMVYNYTGRPMEVDFSKISGAKKNAWWYTTKDGKLEYIGEFDNGVHKFQHDSGYSSGNDHVLIVVDSSKDYVKKDCYQIDTHE | not failed
14 | MTIKVFSPKYPTELEEFYAERIADNPLGFIQRLDLLPSISGFVQKLREHGGEFFEMREGNKLIGICGLNPINQTEAELCKFHINSAYQSQGLGQKLYESVEKYAFIKGYTKISLHVSKSQIKACNLYQKLGFVHIKEEDCVVELGEETLIFPTLFMEKIL | failed
15 | MGHHHHHHSHMARPLVPSSQKALLLELKGLQEEPVEGFRVTLVDEGDLYNWEVAIFGPPNTYYEGGYFKARLKFPIDYPYSPPAFRFLTKMWHPNIYETGDVCISILHPPVDDPQSGELPSERWNPTQNVRTILLSVISLLNEPNTFSPANVDASVMYRKWKESKGKDREYTDIIRKQVLGTKVDAERDGVKVPTTLAEYCVKTKAPAPDEGSDLFYDDYYEDGEVEEEADSCFGDDEDDSGTEES | failed
16 | SGHFSALPSLPVGSHAKVSSPQPRGPRYAEGTFISDYSIAMDKIHQQDFVNWLLAQKGKKNDWKHNITQREARALELASQANRKEEEAVEPQSSPAKNPSDEDLLRDLLIQELLACLLDQTNLCRLRSR | failed
17 | MSELNKEMTLLPPPELVQYVGGDFKKVGKEFLKHFIQIGALKSNEKVLDVGCGVGRMAVPLMNYLNDDGAYYGFDLFKDGITWCQNNISTMRNNFHFEHVDIYNQFYNPEGKEDASQYRFPYEDGTFDFIFLTSVFTHLLPKELEHYVSEIVRVLKKDGRCFITFFLINPESSYYLNAGQSTLGFYHRIENCYVVNKDIPNFAVAYPETDICNLLNKYGLEIINKPHYGLWCGRHEYTSYQDIVLTKKSFLEHHHHHH | not failed
18 | MATIYLVRHGQASFGKENYDQLSPRGWEQGRILGRWLAGKVEPGAVFGGNLQRHRETVEAITTGYGVSLPDMQVLEGLNEFDHLEVVERLRPEWADKQVMARDLASFPKPAKAFQQAFEKAVARWVSGDYDHEYTETWIDFRQRVGAALDELIELAGGADVIVSTSGGPIAVIAQHLLELSDRKALEMNNVIANTSVSRILYSGPRRSLAVFNNYSHLEAEDPALVTFR | failed
19 | MKQIAFIGLGHMGAPMATNLLKAGYLLNVFDLVQSAVDGLVAAGASAARSARDAVQGADVVISMLPASQHVEGLYLDDDGLLAHIAPGTLVLECSTIAPTSARKIHAAARERGLAMLDAPVSGGTAGAAAGTLTFMVGGDAEALEKARPLFEAMGRNIFHAGPDGAGQVAKVCNNQLLAVLMIGTAEAMALGVANGLEAKVLAEIMRRSSGGNWALEVYNPWPGVMENAPASRDYSGGFMAQLMAKDLGLAQEAAQASASSTPMGSLALSLYRLLLKQGYAERDFSVVQKLFDPTQGQ | not failed
20 | MNVSRLCSLYPTLLIPLLFVAGCGLFASSTAPVSRSPESMAREAEEFQSSRRFEDAIAQWRKVKESYISPELITLAEIKIADAQFDSGNYIEAAASYEEFRKLHPNHEKSAYALYRQGLSYFNQIHGFDTDQTPVSNTVTIFESFLRLYPQSEHAEEVRNKLDAARQNQVQYEIYVGQFYYRTEKYTSAIKRLEDALKRYPRSPLHDETLYYLGKAYIKAGDKAGGREAFQRLFNEFRTSKYVDEARSFLDKNF | failed
21 | MIIHIRRTDEKQRWLFFSTLLNATLAVAKLGWGWMMGSTLVVADGIHSISDVFGALLIFLALFFAAHKSERFPYGLHKLEDMAAVLGGLGILYAGYEIIHSVFFEAGIKTPEAIWTTIGFILAIVFIQYTFYFFELKAAQRLGSPGVKADAVNWLGDIGAGMIVVIGLVAHHYKVPYAQEVSVIIIVLMILKGAYDVLKEGLLSLLDAADIEMNDTIRNIVMAEPDITNIKRLNVRKSGSVYFADIELSIAEVATAKAHKSIDEVVNRLHEEINTLEAVTIHYEPDHPPYRTVVRLLDKDKKHLSIHFGQTAWLEITHIEADNKQISKEFVKNSAVIAPKGKAFRLVAYLLSIHTDTIVMGNAELDENILTLFEALNIEVKKEKNDET | failed
